To fix the notation:
B1: CPEB3 Ribozyme (parent)
chain: GGGGGCCACAGCAGAAGCGUUCACGUCGCGGCCCCUGUCAGAUUCUGGUGAAUCUGCGAAUUCUGCUGU

The data set covers variants of B1. Nature of the data set: self-cleavage, relative activity (ratio to wild type); higher = more cleavage; co-transcriptional.
Consider GGGGGCCACAGCAGAAGCGUCCACGUCGCGGCCCCUGUCAGAUUCUGGUGAAUCUGCGAAUUCUGCUUU, for which the self-cleavage was determined as 1. The result for GGGGGCCACAGCAGAAGCGUCCACGUCGCGGCCCCUGUCAGAUUCUGGUGAAUCUGCGAAUUCUGCUCU reads 0.899. The result for GGGGGCCACAGCAGAAGCGUGCACGUCGCGGCCCCUGUCAGAUUCUGGUGAAUAUGCGAAUUCUGCUGU reads 0.341. The same measure for GGGGGCCACAGCAGAAGCGUGCACGUCGCGGCCCCUGUCCGAUUCUGGUGAAUCUGCGAAUUCUGCUGU: 0.222; for GGGGGCCACAGCAGAAGCGUCCACGUCACGGCCCCUGUCAGAUUCUGGUGAAUCUGCGAAUUCUGCUGU: 0.192.

For the variant GGGGGCCACAGCAGAAGCGUGCACGUCGCGGCCCGUGUCAGAUUCUGGUGAAUCUGCGAAUUCUGCUGU, the self-cleavage was 0.225. The result for GGGGGCCACAGCAGAAGCGUGCACGUCGCGGCCCUUGUCAGAUUCUGGUGAAUCUGCGAAUUCUGCUGU reads 0.361; that for GGGGGCCACAGCAGAAGCGUCCACGUCGCGCCCCCUGUCAGAUUCUGGUGAAUCUGCGAAUUCUGCUGU, 0.16; that for GGGGGCCACAGCAGAAGCGUCCACGUCGCGACCCCUGUCAGAUUCUGGUGAAUCUGCGAAUUCUGCUGU, 0.569. Turning to GGGGGCCACAGCAGAAGCGUCCACGUCGCGGCCCCUGUCAGAUUCUGGUGAAGCUGCGAAUUCUGCUGU, the self-cleavage was 0.724. The same measure for GGGGGCCACAGCAGAAGCGUCCAAGUCGCGGCCCCUGUCAGAUUCUGGUGAAUCUGCGAAUUCUGCUGU: 0.376. The result for GGGGGCCACAGCAGAAGCGUCCACGUCGCGGCCCCUGUCAGCUUCUGGUGAAUCUGCGAAUUCUGCUGU reads 0.853; that for GGGGGCCACAGCAGAAGCGUCCACGUCGCGGCCCCUGUCAGAUUCUGGUGAUUCUGCGAAUUCUGCUGU, 0.93. Turning to GGGGGCCACAGCAGAAGCGUCCACGUCGCGGCCCCUGUCAGAUUCUGGUGAGUCUGCGAAUUCUGCUGU, the self-cleavage came out at 0.887. The same measure for GGGGGCCACAGCAGAAGCGUGCACGUCGCGGCCCCUGUCAGAUUCUGGUGAAUCUGCGAAUUGUGCUGU: 0.158; for GGGGGCCACAGCAGAAGCGUGCACGUCGCGGCCCCUGUCAGAUUCUGGUGAAUCUGCGAAUUUUGCUGU: 0.434; for GGGGGCCACAGCAGAAGCGUGCACGUCCCGGCCCCUGUCAGAUUCUGGUGAAUCUGCGAAUUCUGCUGU: 0.162. The same measure for GGGGGCCACAGCAGAAGCGUGCACGUCACGGCCCCUGUCAGAUUCUGGUGAAUCUGCGAAUUCUGCUGU: 0.245; for GGGGGCCACAGCAGAAGCGUGCACGUCGCGGCCCCUGUCAGAUUCUGGUGAAUCUGCGGAUUCUGCUGU: 0.675. Take GGGGGCCACAGCAGAAGCGUGCACGUCGCGGCCCCUGUCAGAUUCUGGUGAAUCUGCGUAUUCUGCUGU: the self-cleavage came to 0.219. With GGGGGCCACAGCAGAAGCGUCCACGUCGCGGCCCCUGUCAGAUUCUGGUGAAUCUCCGAAUUCUGCUGU, the self-cleavage worked out at 0.426.

As for GGGGGCCACAGCAGAAGCGUGCACGUCGCGGCCCCUGUCAGAUUUUGGUGAAUCUGCGAAUUCUGCUGU, the self-cleavage worked out at 0.593. As for GGGGGCCACAGCAGAAGCGUGCACGUCGCGGCCCCUGUCAGAUUAUGGUGAAUCUGCGAAUUCUGCUGU, the self-cleavage worked out at 0.643. The result for GGGGGCCACAGCAGAAGCGUGCACGUCGCGGCCCCUGUCAGAUUGUGGUGAAUCUGCGAAUUCUGCUGU reads 0.567. For GGGGGCCACAGCAGAAGCGUGCACGUCGCGGCCCCUGUCAGAUUCUGGUGACUCUGCGAAUUCUGCUGU, the self-cleavage amounted to 0.459. The result for GGGGGCCACAGCAGAAGCGUCUACGUCGCGGCCCCUGUCAGAUUCUGGUGAAUCUGCGAAUUCUGCUGU reads 0.268; that for GGGGGCCACAGCAGAAGCGUCGACGUCGCGGCCCCUGUCAGAUUCUGGUGAAUCUGCGAAUUCUGCUGU, 0.0423. The result for GGGGGCCACAGCAGAAGCGUCCACGUGGCGGCCCCUGUCAGAUUCUGGUGAAUCUGCGAAUUCUGCUGU reads 0.209.

Turning to GGGGGCCACAGCAGAAGCGUCCACGUCGCGGCCCCUGUCAGAUUCUGGUGAAUCUGGGAAUUCUGCUGU, the self-cleavage is 0.384. The same measure for GGGGGCCACAGCAGAAGCGUCCACGUCGCGGCCCCUGUCAGAUUCUGGUGAAUCUGCGAAUUCUGAUGU: 0.611; for GGGGGCCACAGCAGAAGCGUCCACGUCGCGGCGCCUGUCAGAUUCUGGUGAAUCUGCGAAUUCUGCUGU: 0.217. The same measure for GGGGGCCACAGCAGAAGCGUCCACGUCGCGGCACCUGUCAGAUUCUGGUGAAUCUGCGAAUUCUGCUGU: 0.516; for GGGGGCCACAGCAGAAGCGUCCACGUCGCGGCCCCUGUCAGAUUGUGGUGAAUCUGCGAAUUCUGCUGU: 0.864; for GGGGGCCACAGCAGAAGCGUCCACGUCGCGGCCCCUUUCAGAUUCUGGUGAAUCUGCGAAUUCUGCUGU: 0.264. For GGGGGCCACAGCAGAAGCGUCCACGUCGCGGCCCCUAUCAGAUUCUGGUGAAUCUGCGAAUUCUGCUGU, the self-cleavage was found to be 0.261.

For the variant GGGGGCCACAGCAGAAGCGUACACGUCGCGGCCCCUGUCAGAUUCUGGUGAAUCUGCGAAUUCUGCGGU, the self-cleavage came to 1.02. The same measure for GGGGGCCACAGCAGAAGCGUGCACGUCGCUGCCCCUGUCAGAUUCUGGUGAAUCUGCGAAUUCUGCUGU: 0.214; for GGGGGCCACAGCAGAAGCGUGCACGUCGCAGCCCCUGUCAGAUUCUGGUGAAUCUGCGAAUUCUGCUGU: 0.221; for GGGGGCCACAGCAGAAGCGUGCACGUCGCCGCCCCUGUCAGAUUCUGGUGAAUCUGCGAAUUCUGCUGU: 0.232. Turning to GGGGGCCACAGCAGAAGCGUGCACGUCGCGGCCCCUGUCAGAUUCUGGUGAAUCUGGGAAUUCUGCUGU, the self-cleavage amounted to 0.235.

Consider GGGGGCCACAGCAGAAGCGUGCGCGUCGCGGCCCCUGUCAGAUUCUGGUGAAUCUGCGAAUUCUGCUGU, for which the self-cleavage amounted to 0.549. The same measure for GGGGGCCACAGCAGAAGCGUGCAGGUCGCGGCCCCUGUCAGAUUCUGGUGAAUCUGCGAAUUCUGCUGU: 0.0852; for GGGGGCCACAGCAGAAGCGUCCACGUCGCGGCCCCUGUCAGAUUCUGGUGAAUCUGCGAAUACUGCUGU: 0.661; for GGGGGCCACAGCAGAAGCGUCCACGUCGCGGCCCCUGUCAGAUUCUGGUGAAUCGGCGAAUUCUGCUGU: 0.723. As to GGGGGCCACAGCAGAAGCGUCCACGUCGCGGCCCCUGUCAGAUUCUGGUGAAUCAGCGAAUUCUGCUGU, the self-cleavage turned out to be 0.843. Consider GGGGGCCACAGCAGAAGCGUCCACGUCGCGGCCCCUGUGAGAUUCUGGUGAAUCUGCGAAUUCUGCUGU, for which the self-cleavage amounted to 0.895. As for GGGGGCCACAGCAGAAGCGUCCACGUCGCGGCCCCUGUCAGAUUCUGGUGAAUCUGCGAAUUCUGCUGA, the self-cleavage turned out to be 0.885.

As to GGGGGCCACAGCAGAAGCGUCCACGUCGCGGCCCCUGUCAGAUUCUGGUGAAUCUGCGAAUUCUGCUGG, the self-cleavage stood at 0.933. The same measure for GGGGGCCACAGCAGAAGCGUCCACGUCGCGGCCCCUGUCAGAUUCUGAUGAAUCUGCGAAUUCUGCUGU: 0.933. The same measure for GGGGGCCACAGCAGAAGCGUCCGCGUCGCGGCCCCUGUCAGAUUCUGGUGAAUCUGCGAAUUCUGCUGU: 0.76.

Regarding GGGGGCCACAGCAGAAGCGUCCACGUCGCGGCCCCUGUCAGAUCCUGGUGAAUCUGCGAAUUCUGCUGU, the self-cleavage amounted to 0.824. GGGGGCCACAGCAGAAGCGUCCACGUCGCGGCCCCUGUCAGAUGCUGGUGAAUCUGCGAAUUCUGCUGU: the self-cleavage stood at 0.859. On to GGGGGCCACAGCAGAAGCGUCCACGUCGCGGCCCCUGUCAGAUACUGGUGAAUCUGCGAAUUCUGCUGU, for which the self-cleavage amounted to 0.911. With GGGGGCCACAGCAGAAGCGUCCACGUCGCGGCCCCUGUCAGAUUCUGGUGAAUCUGCGAAUUCUGCGGU, the self-cleavage is 0.978.

With GGGGGCCACAGCAGAAGCGUCCACGUCGCGGCCCCUGUCAGAUUCUGGUGAAUCUGCGCAUUCUGCUGU, the self-cleavage stood at 0.351. The result for GGGGGCCACAGCAGAAGCGUACACGUCGCGGCCCCUGUCAGAUUCUGGUGAAUCUGCGAAUCCUGCUGU reads 0.844; that for GGGGGCCACAGCAGAAGCGUCCACGUCGCGGCCCAUGUCAGAUUCUGGUGAAUCUGCGAAUUCUGCUGU, 0.229.

In the case of GGGGGCCACAGCAGAAGCGUCCACGUCGCGGCCCCUGUCAGAUUCUGGUGAAUCUGCGAAAUCUGCUGU, the self-cleavage was found to be 0.538. GGGGGCCACAGCAGAAGCGUCCACGUCGCGGCCCCUGUCAGAUUCCGGUGAAUCUGCGAAUUCUGCUGU: the self-cleavage is 0.89. The result for GGGGGCCACAGCAGAAGCGUACACGUCGCGGCCCCUGUCAGAUUCUGGUGAAUCGGCGAAUUCUGCUGU reads 0.811; that for GGGGGCCACAGCAGAAGCGUGCACGUCGCGGCCCCUGUCAGAUUCUGGUGAAUCUGCGACUUCUGCUGU, 0.235; that for GGGGGCCACAGCAGAAGCGUACACGUCGCGGCCCCUGUCAGAUUCUGGUGAAUCUGCGAAUUCGGCUGU, 0.898. The same measure for GGGGGCCACAGCAGAAGCGUACACGUCGCGGCCCCUGUCAGAUUCUGGUGAAUCUGCGAACUCUGCUGU: 0.728.

With GGGGGCCACAGCAGAAGCGUGCACAUCGCGGCCCCUGUCAGAUUCUGGUGAAUCUGCGAAUUCUGCUGU, the self-cleavage was 0.284. GGGGGCCACAGCAGAAGCGUGCACGUCGAGGCCCCUGUCAGAUUCUGGUGAAUCUGCGAAUUCUGCUGU: the self-cleavage was determined as 0.242. The result for GGGGGCCACAGCAGAAGCGUGCACGUAGCGGCCCCUGUCAGAUUCUGGUGAAUCUGCGAAUUCUGCUGU reads 0.196; that for GGGGGCCACAGCAGAAGCGUGCACGUUGCGGCCCCUGUCAGAUUCUGGUGAAUCUGCGAAUUCUGCUGU, 0.112. The same measure for GGGGGCCACAGCAGAAGCGUCCACGUCGCGGCCCCUGUCAGAUUCUGGUGAAUCUGCGAAUUCAGCUGU: 0.706. As to GGGGGCCACAGCAGAAGCGUGCACGUCGCGGCCUCUGUCAGAUUCUGGUGAAUCUGCGAAUUCUGCUGU, the self-cleavage was 0.53. The same measure for GGGGGCCACAGCAGAAGCGUGCACGUCGCGGCCGCUGUCAGAUUCUGGUGAAUCUGCGAAUUCUGCUGU: 0.193; for GGGGGCCACAGCAGAAGCGUCCACGACGCGGCCCCUGUCAGAUUCUGGUGAAUCUGCGAAUUCUGCUGU: 0.216. The same measure for GGGGGCCACAGCAGAAGCGUCCACGUCGCGGCCCCUGUCAGAUUCUGGUGAAUCUGCGACUUCUGCUGU: 0.406; for GGGGGCCACAGCAGAAGCGUCCACGUCGCGGCCCCUGUCAGAUUCUGGUGGAUCUGCGAAUUCUGCUGU: 0.914.

On to GGGGGCCACAGCAGAAGCGUCCACGUCGAGGCCCCUGUCAGAUUCUGGUGAAUCUGCGAAUUCUGCUGU, for which the self-cleavage was determined as 0.274. The result for GGGGGCCACAGCAGAAGCGUGCACGUCGCGGCCCCUGUCAGGUUCUGGUGAAUCUGCGAAUUCUGCUGU reads 0.558; that for GGGGGCCACAGCAGAAGCGUCCACGUCGCGGCCCCUGUCAGACUCUGGUGAAUCUGCGAAUUCUGCUGU, 0.875; that for GGGGGCCACAGCAGAAGCGUGCACGUCGCGGCCCCUGUUAGAUUCUGGUGAAUCUGCGAAUUCUGCUGU, 0.61.

GGGGGCCACAGCAGAAGCGUGCACGUCGCGGCCCCUGUAAGAUUCUGGUGAAUCUGCGAAUUCUGCUGU: the self-cleavage came out at 0.396.

The values are drawn from the RNAGym collection of RNA variant scans (doi:10.7554/elife.80360).
